B1: CIgG4E2A1(G4S)1 (Fc fusion)
chain 1: GPPCPPCPAPEFLGGPSVFLFPPKPKDTLMISRTPEVTCVVVDVSQEDPEVQFNWYVDGVEVHNAKTKPREEQFNSTYRVVSVLTVLHQDWLNGKEYKCKVSNKGLPSSIEKTISKAKGQPREPQVYTLPPCQEEMTKNQVSLWCLVKGFYPSDIAVEWESNGQPENNYKTTPPVLDSDGSFFLYSRLTVDKSRWQEGNVFSCSVMHEALHNHYTQKSLSLSLGKGGGGSDVQLQESGGGLVQAGGSLRLSCAASGRTISRYAVGWFRRPPAKEREFIGINWSGGSTTYADSAEGRFIISRDNAKNTVYLQMNSLKPEDTAVYYCAVPSVLVQGGISNPSQYDYWGQGTQVTVS
chain 2: GPPCPPCPAPEFLGGPSVFLFPPKPKDTLMISRTPEVTCVVVDVSQEDPEVQFNWYVDGVEVHNAKTKPREEQFNSTYRVVSVLTVLHQDWLNGKEYKCKVSNKGLPSSIEKTISKAKGQPREPQVCTLPPSQEEMTKNQVSLSCAVKGFYPSDIAVEWESNGQPENNYKTTPPVLDSDGSFFLVSRLTVDKSRWQEGNVFSCSVMHEALHNHYTQKSLSLSLGKGGGGSEVQLLESGGGLVQPGGSLRLSCAASGFTFGNYDMAWVRQAPGKRPEWVSSIDTGGDITHYADSVKGRFTISRDNAKNTLYLQMNSLRPEDTAVYWCATDEEYALGPNEFDYYGQGTLVTVSS
B2: NIgG4E2A1(G4S)3 (Fc fusion)
chain 1: DVQLQESGGGLVQAGGSLRLSCAASGRTISRYAVGWFRRPPAKEREFIGINWSGGSTTYADSAEGRFIISRDNAKNTVYLQMNSLKPEDTAVYYCAVPSVLVQGGISNPSQYDYWGQGTQVTVSGGGGSGGGGSGGGGSGPPCPPCPAPEFLGGPSVFLFPPKPKDTLMISRTPEVTCVVVDVSQEDPEVQFNWYVDGVEVHNAKTKPREEQFNSTYRVVSVLTVLHQDWLNGKEYKCKVSNKGLPSSIEKTISKAKGQPREPQVYTLPPCQEEMTKNQVSLWCLVKGFYPSDIAVEWESNGQPENNYKTTPPVLDSDGSFFLYSRLTVDKSRWQEGNVFSCSVMHEALHNHYTQKSLSLSLGK
chain 2: EVQLLESGGGLVQPGGSLRLSCAASGFTFGNYDMAWVRQAPGKRPEWVSSIDTGGDITHYADSVKGRFTISRDNAKNTLYLQMNSLRPEDTAVYWCATDEEYALGPNEFDYYGQGTLVTVSSGGGGSGGGGSGGGGSGPPCPPCPAPEFLGGPSVFLFPPKPKDTLMISRTPEVTCVVVDVSQEDPEVQFNWYVDGVEVHNAKTKPREEQFNSTYRVVSVLTVLHQDWLNGKEYKCKVSNKGLPSSIEKTISKAKGQPREPQVCTLPPSQEEMTKNQVSLSCAVKGFYPSDIAVEWESNGQPENNYKTTPPVLDSDGSFFLVSRLTVDKSRWQEGNVFSCSVMHEALHNHYTQKSLSLSLGK
B3: CIgG4E2A1(G4S)3 (Fc fusion)
chain 1: GPPCPPCPAPEFLGGPSVFLFPPKPKDTLMISRTPEVTCVVVDVSQEDPEVQFNWYVDGVEVHNAKTKPREEQFNSTYRVVSVLTVLHQDWLNGKEYKCKVSNKGLPSSIEKTISKAKGQPREPQVYTLPPCQEEMTKNQVSLWCLVKGFYPSDIAVEWESNGQPENNYKTTPPVLDSDGSFFLYSRLTVDKSRWQEGNVFSCSVMHEALHNHYTQKSLSLSLGKGGGGSGGGGSGGGGSDVQLQESGGGLVQAGGSLRLSCAASGRTISRYAVGWFRRPPAKEREFIGINWSGGSTTYADSAEGRFIISRDNAKNTVYLQMNSLKPEDTAVYYCAVPSVLVQGGISNPSQYDYWGQGTQVTVS
chain 2: GPPCPPCPAPEFLGGPSVFLFPPKPKDTLMISRTPEVTCVVVDVSQEDPEVQFNWYVDGVEVHNAKTKPREEQFNSTYRVVSVLTVLHQDWLNGKEYKCKVSNKGLPSSIEKTISKAKGQPREPQVCTLPPSQEEMTKNQVSLSCAVKGFYPSDIAVEWESNGQPENNYKTTPPVLDSDGSFFLVSRLTVDKSRWQEGNVFSCSVMHEALHNHYTQKSLSLSLGKGGGGSGGGGSGGGGSEVQLLESGGGLVQPGGSLRLSCAASGFTFGNYDMAWVRQAPGKRPEWVSSIDTGGDITHYADSVKGRFTISRDNAKNTLYLQMNSLRPEDTAVYWCATDEEYALGPNEFDYYGQGTLVTVSS
B4: CIgG4E2A1(RS) (Fc fusion)
chain 1: GPPCPPCPAPEFLGGPSVFLFPPKPKDTLMISRTPEVTCVVVDVSQEDPEVQFNWYVDGVEVHNAKTKPREEQFNSTYRVVSVLTVLHQDWLNGKEYKCKVSNKGLPSSIEKTISKAKGQPREPQVYTLPPCQEEMTKNQVSLWCLVKGFYPSDIAVEWESNGQPENNYKTTPPVLDSDGSFFLYSRLTVDKSRWQEGNVFSCSVMHEALHNHYTQKSLSLSLGKRSDVQLQESGGGLVQAGGSLRLSCAASGRTISRYAVGWFRRPPAKEREFIGINWSGGSTTYADSAEGRFIISRDNAKNTVYLQMNSLKPEDTAVYYCAVPSVLVQGGISNPSQYDYWGQGTQVTVS
chain 2: GPPCPPCPAPEFLGGPSVFLFPPKPKDTLMISRTPEVTCVVVDVSQEDPEVQFNWYVDGVEVHNAKTKPREEQFNSTYRVVSVLTVLHQDWLNGKEYKCKVSNKGLPSSIEKTISKAKGQPREPQVCTLPPSQEEMTKNQVSLSCAVKGFYPSDIAVEWESNGQPENNYKTTPPVLDSDGSFFLVSRLTVDKSRWQEGNVFSCSVMHEALHNHYTQKSLSLSLGKRSEVQLLESGGGLVQPGGSLRLSCAASGFTFGNYDMAWVRQAPGKRPEWVSSIDTGGDITHYADSVKGRFTISRDNAKNTLYLQMNSLRPEDTAVYWCATDEEYALGPNEFDYYGQGTLVTVSS
B5: NIgG4E3A1(RS) (Fc fusion)
chain 1: DVQLQESGGGLVQAGGSLRLACAASGRTLSSYVVSWFRQAPGKERKFVAAITWSGLSTTYLDSVQGRFTISRDNTKDTVYLQMNSLKPQDTAIYYCAAGPNIPSILRTRESEYAYWGQGTQVTVSRSGPPCPPCPAPEFLGGPSVFLFPPKPKDTLMISRTPEVTCVVVDVSQEDPEVQFNWYVDGVEVHNAKTKPREEQFNSTYRVVSVLTVLHQDWLNGKEYKCKVSNKGLPSSIEKTISKAKGQPREPQVYTLPPCQEEMTKNQVSLWCLVKGFYPSDIAVEWESNGQPENNYKTTPPVLDSDGSFFLYSRLTVDKSRWQEGNVFSCSVMHEALHNHYTQKSLSLSLGK
chain 2: EVQLLESGGGLVQPGGSLRLSCAASGFTFGNYDMAWVRQAPGKRPEWVSSIDTGGDITHYADSVKGRFTISRDNAKNTLYLQMNSLRPEDTAVYWCATDEEYALGPNEFDYYGQGTLVTVSSRSGPPCPPCPAPEFLGGPSVFLFPPKPKDTLMISRTPEVTCVVVDVSQEDPEVQFNWYVDGVEVHNAKTKPREEQFNSTYRVVSVLTVLHQDWLNGKEYKCKVSNKGLPSSIEKTISKAKGQPREPQVCTLPPSQEEMTKNQVSLSCAVKGFYPSDIAVEWESNGQPENNYKTTPPVLDSDGSFFLVSRLTVDKSRWQEGNVFSCSVMHEALHNHYTQKSLSLSLGK
B6: CIgG4E2A1(G4S)2 (Fc fusion)
chain 1: GPPCPPCPAPEFLGGPSVFLFPPKPKDTLMISRTPEVTCVVVDVSQEDPEVQFNWYVDGVEVHNAKTKPREEQFNSTYRVVSVLTVLHQDWLNGKEYKCKVSNKGLPSSIEKTISKAKGQPREPQVYTLPPCQEEMTKNQVSLWCLVKGFYPSDIAVEWESNGQPENNYKTTPPVLDSDGSFFLYSRLTVDKSRWQEGNVFSCSVMHEALHNHYTQKSLSLSLGKGGGGSGGGGSDVQLQESGGGLVQAGGSLRLSCAASGRTISRYAVGWFRRPPAKEREFIGINWSGGSTTYADSAEGRFIISRDNAKNTVYLQMNSLKPEDTAVYYCAVPSVLVQGGISNPSQYDYWGQGTQVTVS
chain 2: GPPCPPCPAPEFLGGPSVFLFPPKPKDTLMISRTPEVTCVVVDVSQEDPEVQFNWYVDGVEVHNAKTKPREEQFNSTYRVVSVLTVLHQDWLNGKEYKCKVSNKGLPSSIEKTISKAKGQPREPQVCTLPPSQEEMTKNQVSLSCAVKGFYPSDIAVEWESNGQPENNYKTTPPVLDSDGSFFLVSRLTVDKSRWQEGNVFSCSVMHEALHNHYTQKSLSLSLGKGGGGSGGGGSEVQLLESGGGLVQPGGSLRLSCAASGFTFGNYDMAWVRQAPGKRPEWVSSIDTGGDITHYADSVKGRFTISRDNAKNTLYLQMNSLRPEDTAVYWCATDEEYALGPNEFDYYGQGTLVTVSS

Molecular target: mixture of three Der p 2 specific recombinant human IgE clones H10, H12, P4E (human) (UniProt P01854)
Assay: RBL-SX38 IgE displacement, FACS

Sequence of mixture of three Der p 2 specific recombinant human IgE clones H10, H12, P4E (human) (P01854 other isoform, or with tags, fused parts or gaps): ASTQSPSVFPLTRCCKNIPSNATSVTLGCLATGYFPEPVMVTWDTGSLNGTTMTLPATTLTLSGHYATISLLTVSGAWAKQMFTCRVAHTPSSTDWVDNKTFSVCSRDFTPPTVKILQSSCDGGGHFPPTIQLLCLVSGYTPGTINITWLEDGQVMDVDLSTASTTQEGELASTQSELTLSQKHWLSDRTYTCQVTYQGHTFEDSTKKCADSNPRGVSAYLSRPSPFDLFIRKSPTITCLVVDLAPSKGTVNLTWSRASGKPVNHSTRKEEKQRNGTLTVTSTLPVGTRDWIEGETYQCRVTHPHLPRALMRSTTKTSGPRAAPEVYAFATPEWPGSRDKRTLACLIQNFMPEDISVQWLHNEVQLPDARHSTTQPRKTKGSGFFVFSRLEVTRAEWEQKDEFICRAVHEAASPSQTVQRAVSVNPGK

| Max effect/effect 1 µM [%] | EC50 [nM] | Binder |
| --- | --- | --- |
| 22 | – | B1 |
| 97 | 2 | B2 |
| 45 | 532 | B3 |
| 6 | – | B4 |
| 100 | 2.2 | B5 |
| 45 | 572 | B6 |
